# Ends that are not written are not given here.
# T1: purified human fibrinogen (Homo sapiens, UniProt P02675+P02679)
# T1 sequence (P02679 27-433 limits assumed): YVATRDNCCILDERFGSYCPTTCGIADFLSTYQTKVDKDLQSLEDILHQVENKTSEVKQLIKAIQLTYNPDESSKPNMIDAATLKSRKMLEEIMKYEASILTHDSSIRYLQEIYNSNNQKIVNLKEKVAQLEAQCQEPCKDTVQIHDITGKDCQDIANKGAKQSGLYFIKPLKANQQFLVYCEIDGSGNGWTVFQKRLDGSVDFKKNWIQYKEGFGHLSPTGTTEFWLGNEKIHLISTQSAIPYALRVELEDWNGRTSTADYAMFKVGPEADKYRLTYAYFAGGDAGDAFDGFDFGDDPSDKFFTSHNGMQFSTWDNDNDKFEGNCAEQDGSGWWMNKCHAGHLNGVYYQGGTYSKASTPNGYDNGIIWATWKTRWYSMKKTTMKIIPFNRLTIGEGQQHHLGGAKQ
# T1 sequence (P02675 31-491): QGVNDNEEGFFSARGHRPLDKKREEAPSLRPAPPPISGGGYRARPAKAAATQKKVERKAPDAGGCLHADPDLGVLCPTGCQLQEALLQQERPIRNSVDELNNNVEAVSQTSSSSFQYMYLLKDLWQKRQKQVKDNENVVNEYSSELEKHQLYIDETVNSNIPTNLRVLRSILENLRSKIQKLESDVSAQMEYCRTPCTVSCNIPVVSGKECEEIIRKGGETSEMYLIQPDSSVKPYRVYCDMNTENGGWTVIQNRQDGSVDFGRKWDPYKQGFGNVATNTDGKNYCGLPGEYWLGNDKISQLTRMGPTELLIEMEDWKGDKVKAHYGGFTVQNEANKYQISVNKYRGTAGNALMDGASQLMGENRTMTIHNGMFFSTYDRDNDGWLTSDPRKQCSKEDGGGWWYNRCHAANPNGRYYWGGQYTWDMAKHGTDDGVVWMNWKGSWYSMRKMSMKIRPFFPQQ
# T1 sequence (P02671 20-629 partner limits assumed): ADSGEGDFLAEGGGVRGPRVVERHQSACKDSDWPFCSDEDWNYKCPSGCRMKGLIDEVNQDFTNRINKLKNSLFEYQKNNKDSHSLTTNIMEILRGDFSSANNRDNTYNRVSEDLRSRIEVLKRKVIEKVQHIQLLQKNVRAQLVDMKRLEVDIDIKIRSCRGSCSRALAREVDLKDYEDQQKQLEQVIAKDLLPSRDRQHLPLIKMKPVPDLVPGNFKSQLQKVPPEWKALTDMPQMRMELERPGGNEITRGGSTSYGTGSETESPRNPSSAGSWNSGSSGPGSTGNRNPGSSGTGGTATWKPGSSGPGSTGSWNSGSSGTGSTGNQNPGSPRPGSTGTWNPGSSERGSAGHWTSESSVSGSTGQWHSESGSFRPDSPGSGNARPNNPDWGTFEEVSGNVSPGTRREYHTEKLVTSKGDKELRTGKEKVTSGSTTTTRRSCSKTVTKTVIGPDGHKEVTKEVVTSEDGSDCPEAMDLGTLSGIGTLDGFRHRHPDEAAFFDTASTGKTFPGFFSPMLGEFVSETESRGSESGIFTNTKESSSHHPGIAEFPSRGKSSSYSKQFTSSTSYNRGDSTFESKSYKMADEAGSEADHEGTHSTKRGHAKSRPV
# T2: human fibrinogen (Homo sapiens, UniProt P02675+P02679)
# T2 sequence (P02679 27-433 limits assumed): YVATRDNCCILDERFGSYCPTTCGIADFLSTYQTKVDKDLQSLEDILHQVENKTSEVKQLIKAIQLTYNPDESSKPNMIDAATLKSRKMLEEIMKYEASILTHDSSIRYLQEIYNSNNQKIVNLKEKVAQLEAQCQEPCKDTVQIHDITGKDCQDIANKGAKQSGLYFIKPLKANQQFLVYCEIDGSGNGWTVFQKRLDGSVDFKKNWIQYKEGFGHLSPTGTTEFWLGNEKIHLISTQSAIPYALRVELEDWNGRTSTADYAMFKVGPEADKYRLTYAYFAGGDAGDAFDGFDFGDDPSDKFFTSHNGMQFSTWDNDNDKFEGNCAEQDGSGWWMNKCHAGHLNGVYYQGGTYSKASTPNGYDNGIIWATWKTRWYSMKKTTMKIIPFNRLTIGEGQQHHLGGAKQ
# T2 sequence (P02675 31-491): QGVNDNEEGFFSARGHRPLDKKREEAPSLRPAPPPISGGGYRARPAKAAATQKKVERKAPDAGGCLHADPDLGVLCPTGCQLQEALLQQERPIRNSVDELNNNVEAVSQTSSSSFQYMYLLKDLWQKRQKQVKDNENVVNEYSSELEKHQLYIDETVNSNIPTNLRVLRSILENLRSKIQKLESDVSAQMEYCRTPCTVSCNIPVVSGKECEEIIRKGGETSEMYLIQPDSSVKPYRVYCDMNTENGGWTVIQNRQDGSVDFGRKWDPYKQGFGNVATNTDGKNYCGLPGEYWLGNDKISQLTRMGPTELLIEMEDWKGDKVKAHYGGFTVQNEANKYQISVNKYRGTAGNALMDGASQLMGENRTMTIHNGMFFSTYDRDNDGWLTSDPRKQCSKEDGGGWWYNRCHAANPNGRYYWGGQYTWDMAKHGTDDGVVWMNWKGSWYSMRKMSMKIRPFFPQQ
# T2 sequence (P02671 20-629 partner limits assumed): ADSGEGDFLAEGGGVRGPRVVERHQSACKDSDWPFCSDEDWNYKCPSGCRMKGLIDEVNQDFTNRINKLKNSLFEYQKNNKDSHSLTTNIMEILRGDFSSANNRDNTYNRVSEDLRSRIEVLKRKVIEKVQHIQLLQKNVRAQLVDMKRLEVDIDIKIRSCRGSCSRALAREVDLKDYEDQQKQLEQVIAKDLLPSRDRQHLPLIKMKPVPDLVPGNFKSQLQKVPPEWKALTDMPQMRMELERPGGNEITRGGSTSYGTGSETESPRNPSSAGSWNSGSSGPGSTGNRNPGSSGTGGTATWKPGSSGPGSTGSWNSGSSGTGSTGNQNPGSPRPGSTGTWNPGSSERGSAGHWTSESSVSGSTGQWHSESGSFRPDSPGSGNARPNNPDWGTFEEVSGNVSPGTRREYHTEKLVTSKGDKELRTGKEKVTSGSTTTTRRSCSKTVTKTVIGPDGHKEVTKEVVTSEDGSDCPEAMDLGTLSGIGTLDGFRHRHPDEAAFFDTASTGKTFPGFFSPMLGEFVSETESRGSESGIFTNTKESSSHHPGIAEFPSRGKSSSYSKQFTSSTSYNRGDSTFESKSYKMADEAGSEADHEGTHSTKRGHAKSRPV
# T3: fibrinogen in human plasma (Homo sapiens, UniProt P02675+P02679)
# T3 construct: from tissue; host or cells: human plasma
# T3 sequence (P02679 27-433 limits assumed): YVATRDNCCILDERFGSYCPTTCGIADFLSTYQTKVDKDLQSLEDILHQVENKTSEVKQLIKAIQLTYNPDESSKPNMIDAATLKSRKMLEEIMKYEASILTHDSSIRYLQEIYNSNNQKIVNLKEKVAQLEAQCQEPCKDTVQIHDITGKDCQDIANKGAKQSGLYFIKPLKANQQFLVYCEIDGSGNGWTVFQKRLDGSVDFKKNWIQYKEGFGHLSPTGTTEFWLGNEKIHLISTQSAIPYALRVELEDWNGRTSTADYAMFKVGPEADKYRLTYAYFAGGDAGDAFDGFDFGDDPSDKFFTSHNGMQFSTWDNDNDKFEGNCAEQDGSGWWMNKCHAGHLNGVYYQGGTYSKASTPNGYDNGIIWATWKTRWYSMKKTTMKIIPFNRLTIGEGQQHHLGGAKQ
# T3 sequence (P02675 31-491): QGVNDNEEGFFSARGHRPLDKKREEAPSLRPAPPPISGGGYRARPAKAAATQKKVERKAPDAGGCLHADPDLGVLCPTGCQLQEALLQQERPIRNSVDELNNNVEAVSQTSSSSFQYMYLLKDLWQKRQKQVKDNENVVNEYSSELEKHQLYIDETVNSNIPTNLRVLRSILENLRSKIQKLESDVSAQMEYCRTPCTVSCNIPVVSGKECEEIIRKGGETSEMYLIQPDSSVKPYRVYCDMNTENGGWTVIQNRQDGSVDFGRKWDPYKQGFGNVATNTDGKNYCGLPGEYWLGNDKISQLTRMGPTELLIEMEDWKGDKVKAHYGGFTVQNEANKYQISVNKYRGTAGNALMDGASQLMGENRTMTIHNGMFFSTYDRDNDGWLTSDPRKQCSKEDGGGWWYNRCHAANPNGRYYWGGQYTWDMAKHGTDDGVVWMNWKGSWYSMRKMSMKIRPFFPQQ
# T3 sequence (P02671 20-629 partner limits assumed): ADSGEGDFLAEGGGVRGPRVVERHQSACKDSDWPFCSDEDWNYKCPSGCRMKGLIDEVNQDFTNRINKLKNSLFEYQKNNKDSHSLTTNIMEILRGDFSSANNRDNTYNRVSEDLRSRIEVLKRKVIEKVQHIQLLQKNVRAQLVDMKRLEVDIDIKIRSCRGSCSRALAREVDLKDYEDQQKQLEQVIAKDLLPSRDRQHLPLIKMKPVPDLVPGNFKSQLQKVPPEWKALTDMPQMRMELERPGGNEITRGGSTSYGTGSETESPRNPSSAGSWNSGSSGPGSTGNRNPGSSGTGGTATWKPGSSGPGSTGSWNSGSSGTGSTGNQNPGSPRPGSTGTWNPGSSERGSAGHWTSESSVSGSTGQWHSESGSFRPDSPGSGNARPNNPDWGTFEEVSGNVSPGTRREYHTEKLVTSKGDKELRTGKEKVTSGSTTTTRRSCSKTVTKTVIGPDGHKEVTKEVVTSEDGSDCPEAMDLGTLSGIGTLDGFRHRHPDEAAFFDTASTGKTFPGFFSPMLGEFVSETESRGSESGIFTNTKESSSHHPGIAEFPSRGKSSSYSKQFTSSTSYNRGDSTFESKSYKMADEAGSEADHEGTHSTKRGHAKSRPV
# B1: Peptide Dendrimer No. 12 (peptide, from a related filing, part only)
# peptide: GPRPG
# chain: KKKKK
# modifications: also: five-arm dendrimer, all arms GPRPG, C-termini attached to branched core
# Key:
# [1] = biological target: T1, purified human fibrinogen; assay: Polymerisation (clotting) of purified fibrinogen, Sigma Amelung KC4 Delta coagulation analyser; type: biochemical
# Protocol: The ability of Peptide Dendrimer No. 12 to polymerise fibrinogen was assessed. 30 μl of dendrimer in solution, at concentration ranging from 0.005-2 mg/ml, was added to 100 μl purified human fibrinogen at 3 mg/ml (the level of fibrinogen found in the blood). Polymerisation of fibrinogen was analysed using a Sigma Amelung KC4 Delta coagulation analyser.
# The concentration of each dendrimer was varied from 0.005-0.5 mg/ml.
# human fibrinogen = biological target: T2, human fibrinogen; assay: Clotting activity of dendrimers extracted from gelatin paste after gamma irradiation and storage; type: biochemical; details: fibrinogen 3 mg/ml, 37° C.
# Protocol: 2 ml of solution of Peptide Dendrimer No. 12 or 13 was mixed with SURGIFLO Haemostatic Matrix (a hydrated flowable gelatin matrix) to form a paste of each peptide. Each paste was sterilised by irradiation with ^60Co gamma rays at a dose of 30 kGy, and then stored at room temperature. Samples of the sterilised pastes were used for testing after storage for two and four weeks.
# After storage, peptide dendrimers were extracted from each paste using […] HEPES buffer. 30 μL of each extract (with a peptide concentration of about 0.25 mg/ml) was added to 100 μL of human fibrinogen at 3 mg/ml, and the ability of each dendrimer to polymerise fibrinogen (the ‘clotting’ activity) at 37° C. was determined using a Sigma Amelung KC4 Delta coagulation analyser. The polymerisation activity of non-irradiated control samples was also determined.
# [2] = biological target: T3, fibrinogen in human plasma; assay: Polymerisation of fibrinogen in human plasma, KC4 Delta coagulation analyzer; type: biochemical; details: dendrimer 0.25 mg/ml, 30 μL to 100 μL human plasma, 37° C.
# Protocol: 30 μL of each dendrimer (at a concentration of 0.25 mg/ml) was added to 100 μL human plasma at 37° C., and polymerisation of fibrinogen was determined using a Sigma Amelung KC4 Delta coagulation analyzer.
# human fibrinogen (human) = human fibrinogen (human) (UniProt P02671); assay: cell-based or functional assay
Molecule,"copolymerisation with fibrinogen (clotting time) ([1]; dendrimer 0.005-2 mg/ml, fibrinogen 3 mg/ml)","clotting time at high dendrimer concentration ([1]; dendrimer concentrations above 0.5 mg/ml, fibrinogen 3 mg/ml)",clotting ([1]; dendrimer range ~0.02-0.5 mg/ml),"Clotting activity, Non-irradiated control (human fibrinogen; extract from SURGIFLO paste, about 0.25 mg/ml peptide, not irradiated) [s]","Clotting activity, Storage for 2 weeks post irradiation (human fibrinogen; paste irradiated 30 kGy 60Co gamma, stored 2 weeks at room temperature, about 0.25 mg/ml) [s]","Clotting activity, Storage for 4 weeks post irradiation (human fibrinogen; paste irradiated 30 kGy 60Co gamma, stored 4 weeks at room temperature, about 0.25 mg/ml) [s]",ability to polymerise fibrinogen in human plasma [2],clotting time in human plasma [2],"Clotting activity (seconds), non-irradiated control; extract about 0.25 mg/ml with human fibrinogen 3 mg/ml, 37° C. (human fibrinogen (human)) [s]","Clotting activity (seconds), storage for 2 weeks post irradiation (30 kGy); extract about 0.25 mg/ml with human fibrinogen 3 mg/ml, 37° C. (human fibrinogen (human)) [s]","Clotting activity (seconds), storage for 4 weeks post irradiation (30 kGy); extract about 0.25 mg/ml with human fibrinogen 3 mg/ml, 37° C. (human fibrinogen (human)) [s]","clotting time in human plasma, dendrimer 0.25 mg/ml, 37° C., coagulation analyser (human fibrinogen (human)) [s]"
Peptide Dendrimer No. 12 (peptide GPRPG; chain KKKKK),"able to copolymerise with fibrinogen almost instantaneously, even at very low concentrations",increase in clotting time,almost instantaneous clotting,1,1,1,able to polymerise fibrinogen in human plasma,less than one,–,–,–,–
B1,–,–,–,–,–,–,–,–,1,1,1,< 1

# Reference: patent publication US20180140739A1, “HAEMOSTATIC DEVICE” (HAEMOSTATIX LIMITED, priority 2015, published 2018)
